Assay [1] concerns the target Alexa Fluor 488-labelled K409R half-Fc (IdeS fragment of α-gp120 K409R IgG1WT) (human). As to the kind of experiment: fluorescence correlation spectroscopy (FCS); constant 50 pM Alexa Fluor 488-labelled half-Fc, 1:3 or 1:4 dilutions of unlabelled half-Ab (IgG1C→S), equilibrated at room temperature overnight; diffusion times of all four half-Fc/half-Ab combinations globally fitted with one KD each for F405L homodimerisation, K409R homodimerisation and heterodimerisation.

For assay [2], the target named is Alexa Fluor 488-labelled F405L half-Fc (IdeS fragment of α-RSV F405L IgG1WT) (human). The description is as above.
Assay [3] addresses α-gp120 (clone b12) human IgG1 K409R lacking hinge disulfides (C226S/C229S), half-Ab (human). Nature of the assay: FRET or BRET; Fab-arm exchange between donor (Alexa Fluor 488)- and acceptor (Alexa Fluor 594)-labelled IgG1C→S Abs, 200 nM each, PBS, 25 °C, no reductant; monoexponential exchange rate taken as the rate of dissociation of the full Ab (half-Ab dimer) into half-Abs. For orientation: BRET reads energy transfer from a luciferase to a nearby fluorophore.

Assay [4] concerns the target α-RSV (clone B21M) human IgG1 F405L lacking hinge disulfides (C226S/C229S), half-Ab (human). The assay is described as above.
The target is the same in assay [5]. Nature of the assay: hydrophobic interaction chromatography; products of cFAE analysed for the share of bsAb.

Sequence of α-RSV (clone B21M) human IgG1 F405L lacking hinge disulfides (C226S/C229S), half-Ab (human) (heavy, as listed by the source, chain 1 of 2): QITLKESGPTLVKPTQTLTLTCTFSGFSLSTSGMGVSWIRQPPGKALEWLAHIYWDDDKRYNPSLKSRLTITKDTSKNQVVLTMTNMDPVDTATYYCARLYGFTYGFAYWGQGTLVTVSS
Sequence of α-RSV (clone B21M) human IgG1 F405L lacking hinge disulfides (C226S/C229S), half-Ab (human) (light, as listed by the source, chain 2 of 2): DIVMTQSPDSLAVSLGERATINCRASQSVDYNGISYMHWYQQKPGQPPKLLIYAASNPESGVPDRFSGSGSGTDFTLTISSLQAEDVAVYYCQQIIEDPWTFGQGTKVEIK

With “α-gp120 (clone b12) human IgG1 K409R lacking hinge disulfides (C226S/C229S), half-Ab (antibody)”, the Kd in assay [1] amounted to 0.337 nM; in assay [2] it was 0.0656 nM. Also, the koff in assay [3] was found to be 0.000673 s⁻¹; in assay [4], 0.000198 s⁻¹. In addition, the percent bsAb after cFAE in assay [5] is above 90%.

The Kd is the free concentration of one partner at which half of the binding sites on the other are occupied at equilibrium, for simple one-to-one binding. The term koff denotes a measure of how fast the partners let go of each other. A low value points to a long-lived complex.

The values are drawn from PMC5767869.
